Test results from US12397037B2, “Methods and compositions for immunomodulation” (CHILDREN'S MEDICAL CENTER CORPORATION, priority 2014, dated 2025).

Key:
RhoA = RhoA activity, rhotekin pull-down, U87MG cells; assay type: cell-based, human; settings: SEMA3F 640 ng/ml, 10 minutes
Procedure: FIG. 30A depicts U87MG cells treated with SEMA3F (640 ng/ml), rapamycin (10 nM) or Torin 1 (10 nM) for 30 minutes. Subsequently, cells were stained with Alexa Fluor 488 phalloidin and Hoechst 33342 to identify F-actin cytoskeleton stress fibers and cellular nuclei, respectively. […] The scale bar indicates 20 μm. FIG. 30B depicts U87MG cells transiently transfected with a pcDNA3.1 empty vector or with a wild type (WT) mTOR plasmid and after 18 hours treated with SEMA3F (640 ng/ml) for 30 minutes. Cells were stained as described above in FIG. 30A. Representative cellular staining is shown; bar graph represents the number of fibers/cell (mean±SD) from 3 independent experiments. FIG. 30C depicts U87MG cells transfected with control siRNA or with raptor- or rictor-specific siRNAs (20 nM). […] The number of stress fibers was evaluated in 3 independent experiments and shown as the mean±SD. […] After 18 hours, the cells were treated with SEMA3F (640 ng/ml) for 10 minutes and RhoA activity was evaluated. FIG. 30E depicts U87MG cells transfected with control siRNA or with raptor- or rictor-specific siRNAs (20 nM), were treated with SEMA3F (640 ng/ml) for 10 minutes and RhoA activity was analyzed. […]
RhoA activity (39) was measured using the rhotekin pulldown assay in U87MG cells transfected with the mTOR overexpression construct (FIG. 30D). […]

VEGF promoter = VEGF promoter luciferase assay in U87MG cells; assay type: cell-based, human
Procedure: FIGS. 31A-31B depict U87MG cells transiently co-transfected with a full-length human VEGF promoter luciferase plasmid and a pGL4.74 [hRluc/TK] plasmid as an internal control. Cells were treated with SEMA3F (640 ng/ml for 30 minutes) prior to the addition of DFO (250 μM) or the culture of cells in a hypoxia chamber (1% 02). After 18 hours, VEGF promoter luciferase activity was analyzed. FIG. 31C depicts a graph of U87MG cells transiently cotransfected with our VEGF promoter luciferase and pGL4.74 [hRluc/TK] plasmids and with either a pcDNA3.1 empty vector or our constitutively active Akt (2DAkt). The cells were treated with SEMA3F for 30 minutes prior to the addition of DFO. After 18 hours, VEGF promoter luciferase activity was analyzed. FIG. 31D depicts a graph of parental U87MG cells treated with SEMA3F, rapamycin (10 nM), Torin 1 (10 nM) alone or in combination as indicated for 30 minutes prior to the addition of DFO, and culture supernatants were collected after 18 hours; VEGF protein levels were analyzed by ELISA. In each panel data are representative of 3 independent experiments. Bar graphs represent the mean±SD of n=3 experiments performed in triplicate, *, p<0.01 vs. control.
SEMA3F inhibits hypoxia-induced production of VEGF via the mTOR pathway. The local expression and regulation of VEGF is key to many physiological and pathological processes (40, 41). These findings indicate that SEMA3F can target the transcriptional activation of VEGF via its ability to target mTOR kinase activity (36, 42). To test the effect of SEMA3F on the regulation of VEGF expression, U87MG cells were transfected with a full-length 2.6 kb VEGF promoter-luciferase construct and exposed to the hypoxia mimetic agent desferrioxamine (DFO) or hypoxia (1% 02). […] To test the relative effect of SEMA3F on mTORC1/C2, U87MG cells transiently co-transfected with the 2DAkt construct and the full length VEGF promoter reporter construct, and the cells cultured in the absence or presence of SEMA3F. […] Finally, the effect of SEMA3F on the secretion of VEGF into conditioned media (by ELISA) was determined in the absence or presence of DFO.
Transfection and Luciferase assay: U87MG cells were transiently transfected with plasmid constructs (pcDNA3.1, WT mTOR, 2DAkt, VEGF luciferase reporter plasmid or pGL4.74 [hRluc/TK]) as indicated using Lipofectamine 2000 reagent (Life Technologies) according to the manufacturer's instructions. After 18 hours, cells were treated as outlined in each experimental design. VEGF promoter activity was analyzed using a Dual-Luciferase Reporter Assay System (Promega), and luciferase activity was normalized by Renilla luciferase as an internal control.

B1: SEMA3F: Human recombinant full-length His-Myc-tagged SEMA3F, secreted by transfected 293T cells and purified; class 3 semaphorin, NRP-2 ligand (protein, listed as Homo sapiens)
chain: MLVAGLLLWASLLTGAWPSFPTQDHLPATPRVRLSFKELKATGTAHFFNFLLNTTDYRILLKDEDHDRMYVGSKDYVLSLDLHDINREPLIIHWAASPQRIEECVLSGKDVNGECGNFVRLIQPWNRTHLYVCGTGAYNPMCTYVNRGRRAQATPWTQTQAVRGRGSRATDGALRPMPTAPRQDYIFYLEPERLESGKGKCPYDPKLDTASALINEELYAGVYIDFMGTDAAIFRTLGKQTAMRTDQYNSRWLNDPSFIHAELIPDSAERNDDKLYFFFRERSAEAPQSPAVYARIGRICLNDDGGHCCLVNKWSTFLKARLVCSVPGEDGIETHFDELQDVFVQQTQDVRNPVIYAVFTSSGSVFRGSAVCVYSMADIRMVFNGPFAHKEGPNYQWMPFSGKMPYPRPGTCPGGTFTPSMKSTKDYPDEVINFMRSHPLMYQAVYPLQRRPLVVRTGAPYRLTTIAVDQVDAADGRYEVLFLGTDRGTVQKVIVLPKDDQELEELMLEEVEVFKDPAPVKTMTISSKRQQLYVASAVGVTHLSLHRCQAYGAACADCCLARDPYCAWDGQACSRYTASSKRRSRRQDVRHGNPIRQCRGFNSNANKNAVESVQYGVAGSAAFLECQPRSPQATVKWLFQRDPGDRRREIRAEDRFLRTEQGLLLRALQLSDRGLYSCTATENNFKHVVTRVQLHVLGRDAVHAALFPPLSMSAPPPPGAGPPTPPYQELAQLLAQPEVGLIHQYCQGYWRHVPPSPREAPGAPRSPEPQDQKKPRNRRHHPPDT
modifications: His-Myc tag
notes: Human recombinant full-length His-Myc-tagged SEMA3F, secreted by transfected 293T cells and purified; class 3 semaphorin, NRP-2 ligand
RhoA activity partially rescued (by) (RhoA; U87MG cells overexpressing mTOR): 55% | suppression of RhoA activity (RhoA; control pcDNA3.1-transfected U87MG cells): 88% | inhibition of DFO-induced VEGF promoter activity (VEGF promoter; SEMA3F 640 ng/ml pre-treatment 30 minutes, DFO 250 μM, 18 hours): 43% | reduction of hypoxia-induced VEGF promoter activity (VEGF promoter; SEMA3F 640 ng/ml, 18 hours culture in 1% O2): 44% | VEGF promoter activity in 2DAkt transfected cells (VEGF promoter; SEMA3F 30 minutes prior to DFO): failed to attenuate VEGF promoter activity
